Paper PMC10903085 (Neurotherapeutics, 2023)

Target: His-Tau-Strep (human 4R2N Tau) (human, UniProt P10636-8 1-441)
Assay: AlphaScreen or HTRF

B1: GST-Fyn-SH3-Strep (human Fyn-SH3 domain) (domain or fragment)
chain: not shown
binding result: binds
